The term Kd denotes the equilibrium constant for the complex coming apart.

From article PMC7036363, “Analysis of HrpG regulons and HrpG‐interacting proteins by ChIP‐seq and affinity proteomics in Xanthomonas campestris” come the findings set out here.

For series [1], the target named is HrpG (Xanthomonas campestris pv. campestris 8004) (UniProt Q8PBF6). The series can be described thus: MST. Conditions: MST: 50 mM Tris-HCl pH 7.4, 150 mM NaCl, 10 mM MgCl2, 0.05% Tween-20; EMSA: 10 mM Tris-HCl pH 7.5, 50 mM KCl, 1 mM DTT, 50 ng poly(dI:dC), 0-40 uM protein …. In general terms: A gel shift assay detects complexes by their altered migration in electrophoresis.

The target of series [2] is recombinant HUXcc-His6 (Xanthomonas campestris pv. campestris). The series is described as follows: MST; HUXcc labelled with NT-647 (RED-NHS kit), purified HrpG titrated from 0.001 to 17 μM in a 1:1 series dilution; 1 x MST buffer (50 mM Tris, 150 mM NaCl, 10 mM MgCl2, pH 6) with 0.05% Tween; Monolith NT.115, standard treated capillaries; KD-Fit function.
Series [3] concerns the target HrpG (Xanthomonas campestris pv. campestris …, UniProt Q8PBF6 1-262). The series can be described thus: MST; 10 mM MgCl2; MST: 50 mM Tris-HCl pH 7.4, 150 mM NaCl, 10 mM MgCl2, 0.05% Tween-20; EMSA: 10 mM Tris-HCl pH 7.5, 50 mM KCl, 1 mM DTT, 50 ng poly(dI:dC), 0-40 uM protein, 28 C 30 min. Conditions: protein: recombinant; text writes HrpG-His6; chain copies: 2; label: 5'-FAM; blunt.

Turning to hrcUp MST fragment, the Kd in series [1] is 1.79 µM. Same read-out and setting: the result for hpa2p MST fragment reads 2.22 µM.

For “HrpG-His6 recombinant protein (natural protein)”, the Kd in series [2] was determined as 0.64 µM. Molecule hrpEp MST fragment had a Kd in series [1] of 2.3 µM.

B1: Motif-1 (HrpG consensus motif probe) (dsDNA)
DNA 1: CTTCGAAGTGAGAAATTCTATTGGATCCGC
DNA 2: GCGGATCCAATAGAATTTCTCACTTCGAAG
Turning to B1, the Kd in series [3] was determined as 6.96 ± 1.44 µM.

B2: Motif-2 (mutated HrpG motif probe) (dsDNA)
DNA 1: CTTCGAAGTGAGAACGGAATCCGGATCCGC
DNA 2: GCGGATCCGGATTCCGTTCTCACTTCGAAG
As for B2, the binding result in series [3] is on record as “no binding”.
